# In paper PMC8245419, “Structure-based insights into evolution of rhodopsins” (Communications Biology, 2021):
# Columns and labels:
# LR (Mac), LR 1–313 = molecular target: T1, LR (Mac), LR 1–313 (Plenodomus lingam, UniProt Q9HGT7); assay: X-ray crystallography, […] Å; type: binding; conditions: covalent; retinal Schiff base at K270; pH 7.0
# T1 construct: gene ops; full-length 1-313, C-terminal polyhistidine tag, codon-optimised synthetic gene, expressed in Leishmania tarentolae (LEXSY), DDM; likely trimer; residues 42-286 resolved
# T1 sequence (Q9HGT7 1-313): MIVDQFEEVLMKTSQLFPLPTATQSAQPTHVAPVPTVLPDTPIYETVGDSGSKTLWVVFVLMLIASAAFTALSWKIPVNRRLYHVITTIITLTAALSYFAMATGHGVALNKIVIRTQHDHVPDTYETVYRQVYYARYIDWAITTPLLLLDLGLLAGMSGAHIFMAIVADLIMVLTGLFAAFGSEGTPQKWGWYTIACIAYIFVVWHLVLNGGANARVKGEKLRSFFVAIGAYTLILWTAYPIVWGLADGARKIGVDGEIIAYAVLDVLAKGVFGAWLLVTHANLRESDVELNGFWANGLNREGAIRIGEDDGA
# LR 49–313 = molecular target: T2, LR 49–313 (Plenodomus lingam, UniProt Q9HGT7); assay: time-resolved absorption spectroscopy (photocycle); type: binding; conditions: covalent; DDM micelles; 5 μM all-trans-retinal added at solubilization
# T2 construct: gene ops; N-terminally truncated 49-313, C-terminal polyhistidine tag, codon-optimised synthetic gene, expressed in Leishmania tarentolae (LEXSY), DDM; mostly monomer
# T2 sequence (Q9HGT7 49-313): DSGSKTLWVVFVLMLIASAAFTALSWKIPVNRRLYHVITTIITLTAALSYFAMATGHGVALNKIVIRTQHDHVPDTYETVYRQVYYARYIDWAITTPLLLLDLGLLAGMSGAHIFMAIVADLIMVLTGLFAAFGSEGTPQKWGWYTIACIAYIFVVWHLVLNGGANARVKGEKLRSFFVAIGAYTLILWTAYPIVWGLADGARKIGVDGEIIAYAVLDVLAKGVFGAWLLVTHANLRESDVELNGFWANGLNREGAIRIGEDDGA
# [1] = molecular target: Leptosphaeria rhodopsin LR, N-terminally truncated (residues 49–313) (Leptosphaeria maculans); assay: cross-linking; glutaraldehyde vapor for 30 min, then gradient SDS-PAGE 18.5-8%; protein in DDM micelles; untreated samples as control
# [2] = molecular target: Leptosphaeria rhodopsin LR, N-terminally truncated (residues 49–313) (Leptosphaeria maculans); assay: SEC; Superdex 200 Increase 10/300 GL, 0.05% DDM micelles; masses calculated from retention volume at pH 8.0 (results; the methods give a SEC buffer of pH 6.5, 0.2 M NaCl); trimer to monomers
# [3] = molecular target: Leptosphaeria rhodopsin LR (Mac), full-length (residues 1–313) (Leptosphaeria maculans); assay: cross-linking; glutaraldehyde vapor for 30 min, then gradient SDS-PAGE 18.5-8%; protein in DDM micelles; untreated samples as control
# [4] = molecular target: Leptosphaeria rhodopsin LR (Mac), full-length (residues 1–313) (Leptosphaeria maculans); assay: SEC; Superdex 200 Increase 10/300 GL, 0.05% DDM micelles; masses calculated from retention volume at pH 8.0 (results; the methods give a SEC buffer of pH 6.5, 0.2 M NaCl); trimer to monomers
compound,measurement,setting,value
"CC1=C(/C=C/C(C)=C/C=C/C(C)=C/C=O)C(C)(C)CCC1 [ATR, all-trans-retinal]","X-ray crystallography, 2.2 Å","LR (Mac), LR 1–313",retinal chromophore covalently attached to the K270 on the TM7
same,time-resolved absorption spectroscopy (photocycle),LR 49–313,Both full-length and truncated constructs of LR in DDM micelles exhibit almost similar relaxation time
"Leptosphaeria rhodopsin LR, N-terminally truncated (residues 49–313) (domain or fragment)",stoichiometry N,[1],< 3
same,ratio between monomers and trimers (monomers:trimers),[2],40
same,stoichiometry N,[2],3
"Leptosphaeria rhodopsin LR (Mac), full-length (residues 1–313) (natural protein)",stoichiometry N,[3],< 3
same,ratio between monomers and trimers (monomers:trimers),[4],0.4
same,stoichiometry N,[4],3
